Measured values taken from paper PMC4240654 (2014).

These binders were tested against Factor IXa (Homo sapiens, UniProt P00740) (assay: FXa generation assay).
Factor IXa, sequence (P00740 47-191): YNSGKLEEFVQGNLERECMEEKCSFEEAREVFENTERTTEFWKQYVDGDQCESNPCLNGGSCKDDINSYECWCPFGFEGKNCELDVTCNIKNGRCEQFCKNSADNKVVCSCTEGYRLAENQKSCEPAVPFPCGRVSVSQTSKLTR

| Kd [nM] | Binder |
| --- | --- |
| 4.5 | BDD rFVIIIa (ReFacto) (protein, B-domain deleted, thrombin-activated) chain 1: ATRRYYLGAVELSWDYMQSDLGELPVDARFPPRVPKSFPFNTSVVYKKTLFVEFTDHLFNIAKPRPPWMGLLGPTIQAEVYDTVVITLKNMASHPVSLHAVGVSYWKASEGAEYDDQTSQREKEDDKVFPGGSHTYVWQVLKENGPMASDPLCLTYSYLSHVDLVKDLNSGLIGALLVCREGSLAKEKTQTLHKFILLFAVFDEGKSWHSETKNSLMQDRDAASARAWPKMHTVNGYVNRSLPGLIGCHRKSVYWHVIGMGTTPEVHSIFLEGHTFLVRNHRQASLEISPITFLTAQTLLMDLGQFLLFCHISSHQHDGMEAYVKVDSCPEEPQLRMKNNEEAEDYDDDLTDSEMDVVRFDDDNSPSFIQIRSVAKKHPKTWVHYIAAEEEDWDYAPLVLAPDDRSYKSQYLNNGPQRIGRKYKKVRFMAYTDETFKTREAIQHESGILGPLLYGEVGDTLLIIFKNQASRPYNIYPHGITDVRPLYSRRLPKGVKHLKDFPILPGEIFKYKWTVTVEDGPTKSDPRCLTRYYSSFVNMERDLASGLIGPLLICYKESVDQRGNQIMSDKRNVILFSVFDENRSWYLTENIQRFLPNPAGVQLEDPEFQASNIMHSINGYVFDSLQLSVCLHEVAYWYILSIGAQTDFLSVFFSGYTFKHKMVYEDTLTLFPFSGETVFMSMENPGLWILGCHNSDFRNRGMTALLKVSSCDKNTGDYYEDSYEDISAYLLSKNNAIEPR chain 2: SFQKKTRHYFIAAVERLWDYGMSSSPHVLRNRAQSGSVPQFKKVVFQEFTDGSFTQPLYRGELNEHLGLLGPYIRAEVEDNIMVTFRNQASRPYSFYSSLISYEEDQRQGAEPRKNFVKPNETKTYFWKVQHHMAPTKDEFDCKAWAYFSDVDLEKDVHSGLIGPLLVCHTNTLNPAHGRQVTVQEFALFFTIFDETKSWYFTENMERNCRAPCNIQMEDPTFKENYRFHAINGYIMDTLPGLVMAQDQRIRWYLLSMGSNENIHSIHFSGHVFTVRKKEEYKMALYNLYPGVFETVEMLPSKAGIWRVECLIGEHLHAGMSTLFLVYSNKCQTPLGMASGHIRDFQITASGQYGQWAPKLARLHYSGSINAWSTKEPFSWIKVDLLAPMIIHGIKTQGARQKFSSLYISQFIIMYSLDGKKWQTYRGNSTGTLMVFFGNVDSSGIKHNIFNPPIIARYIRLHPTHYSIRSTLRMELMGCDLNSCSMPLGMESKAISDAQITASSYFTNMFATWSPSKARLHLQGRSNAWRPQVNNPKEWLQVDFQKTMKVTGVTTQGVKSLLTSMYVKEFLISSSQDGHQWTLFFQNGKVKVFQGNQDSFTPVVNSLDPPLLTRYLRIHPQSWVHQIALRMEVLGCEAQDLY |
| 4.1 | SC rFVIIIFc (thrombin-activated) (protein, single-chain Fc fusion, thrombin-activated) chain 1: ATRRYYLGAVELSWDYMQSDLGELPVDARFPPRVPKSFPFNTSVVYKKTLFVEFTDHLFNIAKPRPPWMGLLGPTIQAEVYDTVVITLKNMASHPVSLHAVGVSYWKASEGAEYDDQTSQREKEDDKVFPGGSHTYVWQVLKENGPMASDPLCLTYSYLSHVDLVKDLNSGLIGALLVCREGSLAKEKTQTLHKFILLFAVFDEGKSWHSETKNSLMQDRDAASARAWPKMHTVNGYVNRSLPGLIGCHRKSVYWHVIGMGTTPEVHSIFLEGHTFLVRNHRQASLEISPITFLTAQTLLMDLGQFLLFCHISSHQHDGMEAYVKVDSCPEEPQLRMKNNEEAEDYDDDLTDSEMDVVRFDDDNSPSFIQIRSVAKKHPKTWVHYIAAEEEDWDYAPLVLAPDDRSYKSQYLNNGPQRIGRKYKKVRFMAYTDETFKTREAIQHESGILGPLLYGEVGDTLLIIFKNQASRPYNIYPHGITDVRPLYSRRLPKGVKHLKDFPILPGEIFKYKWTVTVEDGPTKSDPRCLTRYYSSFVNMERDLASGLIGPLLICYKESVDQRGNQIMSDKRNVILFSVFDENRSWYLTENIQRFLPNPAGVQLEDPEFQASNIMHSINGYVFDSLQLSVCLHEVAYWYILSIGAQTDFLSVFFSGYTFKHKMVYEDTLTLFPFSGETVFMSMENPGLWILGCHNSDFRNRGMTALLKVSSCDKNTGDYYEDSYEDISAYLLSKNNAIEPR chain 2: SFQKKTRHYFIAAVERLWDYGMSSSPHVLRNRAQSGSVPQFKKVVFQEFTDGSFTQPLYRGELNEHLGLLGPYIRAEVEDNIMVTFRNQASRPYSFYSSLISYEEDQRQGAEPRKNFVKPNETKTYFWKVQHHMAPTKDEFDCKAWAYFSDVDLEKDVHSGLIGPLLVCHTNTLNPAHGRQVTVQEFALFFTIFDETKSWYFTENMERNCRAPCNIQMEDPTFKENYRFHAINGYIMDTLPGLVMAQDQRIRWYLLSMGSNENIHSIHFSGHVFTVRKKEEYKMALYNLYPGVFETVEMLPSKAGIWRVECLIGEHLHAGMSTLFLVYSNKCQTPLGMASGHIRDFQITASGQYGQWAPKLARLHYSGSINAWSTKEPFSWIKVDLLAPMIIHGIKTQGARQKFSSLYISQFIIMYSLDGKKWQTYRGNSTGTLMVFFGNVDSSGIKHNIFNPPIIARYIRLHPTHYSIRSTLRMELMGCDLNSCSMPLGMESKAISDAQITASSYFTNMFATWSPSKARLHLQGRSNAWRPQVNNPKEWLQVDFQKTMKVTGVTTQGVKSLLTSMYVKEFLISSSQDGHQWTLFFQNGKVKVFQGNQDSFTPVVNSLDPPLLTRYLRIHPQSWVHQIALRMEVLGCEAQDLY |
| 5.5 | rFVIIIFc (thrombin-activated) (protein, Fc fusion, thrombin-activated) chain 1: ATRRYYLGAVELSWDYMQSDLGELPVDARFPPRVPKSFPFNTSVVYKKTLFVEFTDHLFNIAKPRPPWMGLLGPTIQAEVYDTVVITLKNMASHPVSLHAVGVSYWKASEGAEYDDQTSQREKEDDKVFPGGSHTYVWQVLKENGPMASDPLCLTYSYLSHVDLVKDLNSGLIGALLVCREGSLAKEKTQTLHKFILLFAVFDEGKSWHSETKNSLMQDRDAASARAWPKMHTVNGYVNRSLPGLIGCHRKSVYWHVIGMGTTPEVHSIFLEGHTFLVRNHRQASLEISPITFLTAQTLLMDLGQFLLFCHISSHQHDGMEAYVKVDSCPEEPQLRMKNNEEAEDYDDDLTDSEMDVVRFDDDNSPSFIQIRSVAKKHPKTWVHYIAAEEEDWDYAPLVLAPDDRSYKSQYLNNGPQRIGRKYKKVRFMAYTDETFKTREAIQHESGILGPLLYGEVGDTLLIIFKNQASRPYNIYPHGITDVRPLYSRRLPKGVKHLKDFPILPGEIFKYKWTVTVEDGPTKSDPRCLTRYYSSFVNMERDLASGLIGPLLICYKESVDQRGNQIMSDKRNVILFSVFDENRSWYLTENIQRFLPNPAGVQLEDPEFQASNIMHSINGYVFDSLQLSVCLHEVAYWYILSIGAQTDFLSVFFSGYTFKHKMVYEDTLTLFPFSGETVFMSMENPGLWILGCHNSDFRNRGMTALLKVSSCDKNTGDYYEDSYEDISAYLLSKNNAIEPR chain 2: SFQKKTRHYFIAAVERLWDYGMSSSPHVLRNRAQSGSVPQFKKVVFQEFTDGSFTQPLYRGELNEHLGLLGPYIRAEVEDNIMVTFRNQASRPYSFYSSLISYEEDQRQGAEPRKNFVKPNETKTYFWKVQHHMAPTKDEFDCKAWAYFSDVDLEKDVHSGLIGPLLVCHTNTLNPAHGRQVTVQEFALFFTIFDETKSWYFTENMERNCRAPCNIQMEDPTFKENYRFHAINGYIMDTLPGLVMAQDQRIRWYLLSMGSNENIHSIHFSGHVFTVRKKEEYKMALYNLYPGVFETVEMLPSKAGIWRVECLIGEHLHAGMSTLFLVYSNKCQTPLGMASGHIRDFQITASGQYGQWAPKLARLHYSGSINAWSTKEPFSWIKVDLLAPMIIHGIKTQGARQKFSSLYISQFIIMYSLDGKKWQTYRGNSTGTLMVFFGNVDSSGIKHNIFNPPIIARYIRLHPTHYSIRSTLRMELMGCDLNSCSMPLGMESKAISDAQITASSYFTNMFATWSPSKARLHLQGRSNAWRPQVNNPKEWLQVDFQKTMKVTGVTTQGVKSLLTSMYVKEFLISSSQDGHQWTLFFQNGKVKVFQGNQDSFTPVVNSLDPPLLTRYLRIHPQSWVHQIALRMEVLGCEAQDLY |
